The results in this text go back to patent US20050042607A1, “Parkin protein as ubiquitin ligase” (priority 2000, published 2005).

One experiment deals with UbcH5A-C. Kind of experiment: Co-immunoprecipitation of Myc-Parkin with UbcH5A-C expressed in HEK293 cells. It counts as binding, human. The note with it: IP with antiMyc antibody. The procedure:
(§1) For preparing pcDNA3.1(+)Myc and pcDNA3.1(+)FLAG vectors, oligo DNA encoding N-terminal Myc and FLAG epitopes was ligated at KpnI/BamHI domain of pcDNA3.1(+) (Invitrogen). After the amplification of wild type parkin or N-terminal-deficient variant, Ubc2(HHR6B), UbcH8 and cDNA of ubiquitin with a suitable primer, they were ligated in BamHI domain of the vector. The C-terminal-deficient variant and missense variant of parkin were prepared by introducing a variation into pcDNA3.1(+)Myc-Parkin by using a Quik Change domain specific variation inducing kit (Stratagene) according to a manual. pCAGGS-Ubc3 was already reported [Iwai K. et al., Proc. Natl. Acad. Sci. USA 96, 12436-12441 (1999)].
(§2) pCGN-Ubc4 and other pcDNA3.1(+)FLAG-Ubc were prepared from human liver cDNA library by an ordinary method. Ubc used was obtained from human beings in all the cases. […]
(§3) The following test was conducted to find whether Parkin concerns the ubiquitin pathway or not. To find whether the interaction between Parkin and each of various E2 enzymes occurs or not, Myc-labeled parkin was expressed together with various E2 enzymes labeled with FLAG, HA or His at different domains in HEK293 cells, and the interaction of them was detected by the immunoprecipitation The results are shown in FIG. 1. […]

A further experiment relates to HEK293 fetal kidney cell. Kind of experiment: Association of FLAG-ubiquitinated cell protein with Myc-Parkin in HEK293 cells. It counts as cell-based, human. Particulars: HEK293 fetal kidney cell extract, same analysis as in SH-SY5Y. As for the experimental part:
(§4) pCGN-Ubc4 and other pcDNA3.1(+)FLAG-Ubc were prepared from human liver cDNA library by an ordinary method. Ubc used was obtained from human beings in all the cases. Human fetal kidney 293 (HEK293) cells and human dopamigenergic neuroblastoma SH-SY5Y cells were cultured in DMEM containing 10% bovine fetal serum, 10 μg/ml streptomycin and 100 U/ml penicillin.
(§5) The transfection was carried out by using FuGENE6 transfection reagent according to the producer (Boehringer-Mannheim)'s manual. The cells were treated with MG132 (Cbz-Leu-Leu-Leu-aldehyde) (Peptide Institute, Inc., Osaka, Japan) having a final concentration of 50 μM.
(§6) The immunoprecipitation was conducted with rabbit polyclonal antiMyc antibodies (A-14) (Santa Cruz Biotechnology) as previously reported [Suzuki H. et al., Biochem. Biophys. Res. Commun. 256, 127-132 (1999)]. The immunoblotting was conducted with biotin linked mouse monoclonal antiFLAG(M2) antibody (SIGMA), mouse monoclonal antiMyc antibody (9E10) (Santa Cruz Biotechnology), mouse monoclonal antiHA antibody (HA.11) (Berkeley Antibody Company) or mouse monoclonal antiHis antibody (RGS.His) (QIAGEN). Streptoavidin/horseradish peroxidase complex (Amersham Pharmacia Biotech) was used for detecting biotin-linked antiFLAG(M2) antibody.
(§7) At first, 10 μg of pcDNA3.1(+)Myc-parkin and 10 μg of pcDNA3.1(+)FLAG-ubiquitin vector were simultaneously transfected into SH-SY5Y cells. […]

The next experiment deals with T1, UbcH7 (Homo sapiens, UniProt P68036).
T1 construct: expressed in transfected cells; host or cells: HEK293
T1 sequence (P68036 whole entry): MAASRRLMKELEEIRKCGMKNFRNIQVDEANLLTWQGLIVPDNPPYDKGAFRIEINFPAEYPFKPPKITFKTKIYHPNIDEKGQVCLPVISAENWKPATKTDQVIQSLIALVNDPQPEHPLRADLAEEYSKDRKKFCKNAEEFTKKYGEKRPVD
Kind of experiment: Co-immunoprecipitation of Myc-Parkin with FLAG-UbcH7 expressed in HEK293 cells. Particulars: 48 hours after transfection, IP with antiMyc antibody. The format is binding. The procedure:
as §1, §4
The transfection was carried out by using FuGENE6 transfection reagent according to the producer (Boehringer-Mannheim)'s manual. […]
The following test was conducted to find whether Parkin concerns the ubiquitin pathway or not. To find whether the interaction between Parkin and each of various E2 enzymes occurs or not, Myc-labeled parkin was expressed together with various E2 enzymes labeled with FLAG, HA or His at different domains in HEK293 cells, and the interaction of them was detected by the immunoprecipitation The results are shown in FIG. 1.
Concretely, pcDNA3.1(+)Myc-Parkin ([…]) was transfected in HEK293 cells simultaneously with various expression vectors encoding FLAG-, His- or HA-Ubc in an amount shown in the parentheses in FIG. 1. […] The cell extracts (upper panel in FIG. 1) and immunoprecipitates (middle and lower panels in FIG. 1) were analyzed by the immunoblotting with various antibodies as shown in FIG. 1. […]

Another experiment addresses T2, Ubc3 (Homo sapiens, UniProt P49427).
T2 construct: expressed in transfected cells; host or cells: HEK293
T2 sequence (P49427 1-236): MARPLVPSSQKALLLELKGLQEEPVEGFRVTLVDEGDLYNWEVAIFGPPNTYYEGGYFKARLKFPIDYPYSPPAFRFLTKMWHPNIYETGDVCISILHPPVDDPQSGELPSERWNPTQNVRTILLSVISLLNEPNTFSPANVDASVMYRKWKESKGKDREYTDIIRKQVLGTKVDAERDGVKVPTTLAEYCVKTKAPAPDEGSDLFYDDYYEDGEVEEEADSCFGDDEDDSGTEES
Description: Co-immunoprecipitation of Myc-Parkin with Ubc3 expressed in HEK293 cells. The note with it: IP with antiMyc antibody. The format is binding. As for the experimental part:
as §1, §2, §3

The next experiment relates to Ubc4. Kind of experiment: Co-immunoprecipitation of Myc-Parkin with Ubc4 expressed in HEK293 cells. It counts as binding, human. Particulars: IP with antiMyc antibody. As for the experimental part: as §1, §2, §3
Another experiment concerns the target T3, UbcH8 (Homo sapiens, UniProt O14933).
T3 construct: expressed in transfected cells; host or cells: HEK293
Description: Co-immunoprecipitation of Myc-Parkin with UbcH8 expressed in HEK293 cells. It counts as binding. The note with it: 48 hours after transfection, IP with antiMyc antibody. The procedure: as §1, §2, §3

Experiment [1] relates to human dopamigenergic neuroblastoma SH-SY5Y cells. Kind of experiment: Association of FLAG-ubiquitinated cell protein with Myc-Parkin in SH-SY5Y cells (antiMyc immunoprecipitation, antiFLAG immunoblotting). It counts as cell-based. As for the experimental part: as §1, §4, §5, §6, §7
A general note: A western blot detects proteins with antibodies after separation by electrophoresis.

For another experiment, the target named is T4, UbcH6 (Homo sapiens, UniProt P51965).
T4 construct: expressed in transfected cells; host or cells: HEK293
T4 sequence (P51965 whole entry): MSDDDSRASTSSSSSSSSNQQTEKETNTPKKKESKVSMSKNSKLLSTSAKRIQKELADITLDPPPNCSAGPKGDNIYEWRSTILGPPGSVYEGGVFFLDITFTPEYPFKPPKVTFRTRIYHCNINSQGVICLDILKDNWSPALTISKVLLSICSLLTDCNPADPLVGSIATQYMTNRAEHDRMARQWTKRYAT
Kind of experiment: Co-immunoprecipitation of Myc-Parkin with UbcH6 expressed in HEK293 cells. The note with it: IP with antiMyc antibody. It counts as binding. As for the experimental part: as §1, §2, §3

The target in a further experiment is T5, Ubc2 (Homo sapiens, UniProt P63146).
T5 construct: expressed in transfected cells; host or cells: HEK293
T5 sequence (P63146 whole entry): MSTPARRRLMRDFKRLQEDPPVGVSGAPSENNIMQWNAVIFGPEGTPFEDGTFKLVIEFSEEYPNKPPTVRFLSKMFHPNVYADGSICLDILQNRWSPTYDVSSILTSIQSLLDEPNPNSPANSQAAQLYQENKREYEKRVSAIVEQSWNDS
Description: Co-immunoprecipitation of Myc-Parkin with Ubc2 expressed in HEK293 cells. The format is binding. The note with it: IP with antiMyc antibody. As for the experimental part:
as §1, §2, §3

Where [2] appears, read: SH-SY5Y cells treated with proteasome inhibitor MG132 (50 μM).

Changes are numbered by the printed parent chain. Names and notes keep the numbering of the source. “Also recorded” adds a separate entry of the source.

T3 sequence (O14933 whole entry): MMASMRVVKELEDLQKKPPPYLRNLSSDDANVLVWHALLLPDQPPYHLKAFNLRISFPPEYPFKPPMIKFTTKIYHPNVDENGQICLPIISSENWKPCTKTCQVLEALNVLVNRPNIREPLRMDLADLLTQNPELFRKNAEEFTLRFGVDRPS

B1: Parkin: Protein of 465 amino acids encoded by parkin, with N-terminal ubiquitin-like domain and C-terminal RING-box; used Myc-labeled (protein, UniProt O60260 1-465, looked up)
E3 ubiquitin-protein ligase …: MIVFVRFNSSHGFPVEVDSDTSIFQLKEVVAKRQGVPADQLRVIFAGKELRNDWTVQNCDLDQQSIVHIVQRPWRKGQEMNATGGDDPRNAAGGCEREPQSLTRVDLSSSVLPGDSVGLAVILHTDSRKDSPPAGSPAGRSIYNSFYVYCKGPCQRVQPGKLRVQCSTCRQATLTLTQGPSCWDDVLIPNRMSGECQSPHCPGTSAEFFFKCGAHPTSDKETSVALHLIATNSRNITCITCTDVRSPVLVFQCNSRHVICLDCFHLYCVTRLNDRQFVHDPQLGYSLPCVAGCPNSLIKELHHFRILGEEQYNRYQQYGAEECVLQMGGVLCPRPGCGAGLLPEPDQRKVTCEGGNGLGCGFAFCRECKEAYHEGECSAVFEASGTTTQAYRVDERAAEQARWEAASKETIKKTTKPCPRCHVPVEKNGGCMHMKCPQPQCRLEWCWNCGCEWNRVCMGDHWFDV
modifications: Myc tag
notes: Protein of 465 amino acids encoded by parkin, with N-terminal ubiquitin-like domain and C-terminal RING-box; used Myc-labeled
As for B1, the “association (co-immunoprecipitation) with UbcH5A-C” value with UbcH5A-C is “no detectable linkage”. Besides, the “ubiquitinated protein bands associated with Parkin” value is reported as “no ubiquitinated band linked with Parkin was observed” in the experiment with HEK293 fetal kidney cell; “ubiquitinated bands including high-molecular ubiquitinated proteins, were detected” in experiment [1] (setting [2]); “no ubiquitinated band was found” in experiment [1] (SH-SY5Y cells, no treatment with inhibitor). Also, the “association (co-immunoprecipitation) with UbcH7” value (shortened to “association … with UbcH7”) with UbcH7 is reported as “immunoprecipitated together with Parkin”. Further, the “association (co-immunoprecipitation) with Ubc3” value in the experiment with Ubc3 was “no detectable linkage”. Further, the “association (co-immunoprecipitation) with Ubc4” value in the experiment with Ubc4 is given as “no detectable linkage”. Moreover, the “association (co-immunoprecipitation) with UbcH8” value with UbcH8 is reported as “not detected under ordinary conditions; also recorded: UbcH8 immunoprecipitation was weak”. Besides, the “association (co-immunoprecipitation) with UbcH6” value with UbcH6 is reported as “no detectable linkage”. Further, the “association (co-immunoprecipitation) with Ubc2” value with Ubc2 was “no detectable linkage”.

B2: Parkin^T240R: Missense Parkin variant from AR-JP patient, No. 240 threonine replaced with arginine (RING1 domain) (protein, UniProt O60260 1-465, looked up, variant T240R)
E3 ubiquitin-protein ligase …: B1 E3 ubiquitin-protein ligase … with T240R
As to B2, the “association … with UbcH7” value with UbcH7 was “did not interact with UbcH7”.

B3: Parkin^R42P: Missense Parkin variant from AR-JP patient, No. 42 arginine replaced with proline (ubiquitin-like domain variant) (protein, UniProt O60260 1-465, looked up, variant R42P)
E3 ubiquitin-protein ligase …: B1 E3 ubiquitin-protein ligase … with R42P
As for B3, the “association … with UbcH7” value with UbcH7 is on record as “could be linked with UbcH7”. The “ubiquitinated protein bands associated with Parkin” value in [1] (setting [2]) is “substantially completely lost the association with the ubiquitinated protein”.
